Experiment [1] concerns the target Aβ_(1-40) peptide. The experiment in a line: cross-linking.
In experiment [2] the target is Aβ_(1-40) peptide. The experiment in a line: cross-linking. The source holds these as a separate data set.
For experiment [3], the target named is eAβPP_(19-624), His-Patch thioredoxin fusion of the entire ectodomain of AβPP695 (82-kDa) (human) (UniProt P05067). The experiment in a line: SAXS.
The target of the next experiment is Aβ_(1-42) peptide. The experiment in a line: cross-linking.

Values joined by “and” are separate entries in the source; they are usually repeats but may differ in a detail not shown here. Equal entries are not always repeated. Where two headings read alike, the source gives them in different places.

As to Aβ_(1-40) peptide, the stoichiometry N – broadly, a count of units in the complex or per binding partner – with Aβ_(1-40) peptide [1] was 12 and 18; with Aβ_(1-40) peptide [2], 2. Besides, in experiment [3], the stoichiometry N (Aβ molecules per eAβPP dimer) turned out to be 8.

In the case of Aβ_(1-42) peptide, in the experiment with Aβ_(1-42) peptide, the stoichiometry N is 3. Moreover, the stoichiometry N (Aβ molecules per eAβPP dimer) in experiment [3] worked out at 6.

(Values after paper PMC4001850.)
